The target of test [1] is T1, peptide human SIRPgamma VKFRKGSPENVEFKSGPGTEMALGAKPSA-6His.
T1 peptide: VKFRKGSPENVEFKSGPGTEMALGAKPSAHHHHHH
Kind of test: ELISA.

Test [2] deals with T2, recombinant hSIRPg-His (Sino Biologicals reference 11828-H08H) (human, UniProt Q9P1W8 29-360).
T2 chain: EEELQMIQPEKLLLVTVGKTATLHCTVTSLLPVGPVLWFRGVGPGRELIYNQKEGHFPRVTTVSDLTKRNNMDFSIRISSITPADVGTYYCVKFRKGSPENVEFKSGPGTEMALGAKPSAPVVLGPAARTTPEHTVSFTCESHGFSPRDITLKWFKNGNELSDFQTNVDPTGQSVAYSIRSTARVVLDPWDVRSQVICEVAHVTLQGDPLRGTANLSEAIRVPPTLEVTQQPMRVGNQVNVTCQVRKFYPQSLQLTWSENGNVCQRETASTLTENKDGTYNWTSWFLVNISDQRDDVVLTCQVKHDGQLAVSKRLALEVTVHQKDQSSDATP
The test is described as follows: competition ELISA with CD47-Fc. In general terms: ELISA stands for enzyme-linked immunosorbent assay.

Three molecules from patent publication US20230242640A1 (published 2023) can be followed below.

B1: anti-SIRPg antibody A5 (antibody, V domains shown)
VH: EVQLVESGGGVVRPGGSLRLSCAASGFTFDDYGMSWVRQAPGKGLEWVSGINWNGGSTGYADSVKGRFTISRDNAKNSLYLQMNSLRAEDTAVYYCARQMVKLWGQGTLVTVSR
VL: SSELTQDPAVSVALGQTVRITCQGDSLRSYYASWYQQKPGQAPVLVIYGKNNRPSGIPDRFSGSSSGNTASLTITGAQAEDEADYYCNSRDSSGNHVVFGGGTKLTVLR
The EC50 is the concentration at which the effect is half-maximal. The IC50 is the point on the concentration scale where inhibition reaches its midpoint. For B1, in test [1], it took 0.069 µg/mL to reach a half-maximal effect (EC50). In addition, the IC50 in test [2] is 0.045 µg/mL.

B2: anti-SIRPg antibody A8 (antibody, V domains shown)
VH: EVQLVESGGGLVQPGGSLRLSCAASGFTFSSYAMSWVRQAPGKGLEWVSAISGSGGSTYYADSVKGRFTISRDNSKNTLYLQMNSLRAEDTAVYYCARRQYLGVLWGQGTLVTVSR
VL: SSELTQDPAVSVALGQTVRITCQGDSLRSYYASWYQQKPGQAPVLVIYGKNNRPSGIPDRFSGSSSGNTASLTITGAQAEDEADYYCNSRDSSGNHVVFGGGTKLTVLR
B2 came in with an EC50 in test [1] of 0.0258 µg/mL. Besides, the IC50 in test [2] was found to be 0.31 µg/mL.

B3: anti-SIRPg antibody A1 (antibody, V domains shown)
VH: EVQLVESGGGVVRPGGSLRLSCAASGFTFDDYGMSWVRQAPGKGLEWVSGINWNGGSTGYADSVKGRFTISRDNAKNSLYLQMNSLRAEDTAVYYCARWIAKVWGQGTLVTVSR
VL: SSELTQDPAVSVALGQTVRITCQGDSLRSYYASWYQQKPGQAPVLVIYGKNNRPSGIPDRFSGSSSGNTASLTITGAQAEDEADYYCNSRDSSGNHVVFGGGTKLTVLR
B3 came in with an EC50 in test [1] of 0.0505 µg/mL. In test [2], the IC50 was found to be 0.19 µg/mL.
